These results are taken from article PMC12307502.

As a reminder, the Kd is the equilibrium constant for the complex coming apart. A high value points to a looser complex.

The target of the series is AβO (amyloid-beta oligomer) (UniProt P05067). Put plainly: fluorescence quenching titration (Cy5/BHQ3), LangmuirEXT1 fit. The following applies: 25 °C; buffer not stated for the aptamer-only binding assays (AβO detection assay: 50 mM Tris-HCl pH 8, 10 mM MgCl2).
UniProt P05067, sequence (P05067 whole entry): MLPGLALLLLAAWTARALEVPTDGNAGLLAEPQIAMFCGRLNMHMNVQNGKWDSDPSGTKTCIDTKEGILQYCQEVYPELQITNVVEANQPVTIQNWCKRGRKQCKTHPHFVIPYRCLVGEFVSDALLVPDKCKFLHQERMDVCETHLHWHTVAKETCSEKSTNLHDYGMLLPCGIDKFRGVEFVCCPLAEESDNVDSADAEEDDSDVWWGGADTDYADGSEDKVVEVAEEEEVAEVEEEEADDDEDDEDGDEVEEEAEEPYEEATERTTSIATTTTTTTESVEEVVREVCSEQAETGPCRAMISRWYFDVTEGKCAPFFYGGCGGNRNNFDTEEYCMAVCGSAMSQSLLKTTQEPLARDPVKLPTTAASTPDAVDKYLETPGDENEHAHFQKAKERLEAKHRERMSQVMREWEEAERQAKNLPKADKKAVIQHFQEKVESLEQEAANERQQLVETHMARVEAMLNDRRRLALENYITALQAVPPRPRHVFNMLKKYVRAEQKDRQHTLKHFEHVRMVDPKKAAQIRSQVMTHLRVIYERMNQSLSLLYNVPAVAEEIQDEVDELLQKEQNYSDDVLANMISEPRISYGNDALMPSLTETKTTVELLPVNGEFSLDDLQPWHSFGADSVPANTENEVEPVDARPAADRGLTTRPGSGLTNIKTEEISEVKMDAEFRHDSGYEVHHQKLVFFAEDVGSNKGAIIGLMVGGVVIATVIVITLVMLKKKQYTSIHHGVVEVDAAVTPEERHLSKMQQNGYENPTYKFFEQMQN

In turn, “TGACCAACGCCTGTGGTGTTGGGGCGGGTGCGGTTGGTCA [A4]” displayed a Kd of 7.54 nM.
